{
  "source": "patent US20240002500A1",
  "about": "(GUANGDONG FAPON BIOPHARMA, published 2024)",
  "key": {"[1]": {"biological_target": "T1, human Tigit extracellular domain recombinant protein hTigit-his (Acrobiosystem, Cat.TIT-H2H3) (human, UniProt Q495A1 22-141)", "T1 construct": "extracellular domain; Bought; not shown: his tag", "T1 sequence (looked up)": "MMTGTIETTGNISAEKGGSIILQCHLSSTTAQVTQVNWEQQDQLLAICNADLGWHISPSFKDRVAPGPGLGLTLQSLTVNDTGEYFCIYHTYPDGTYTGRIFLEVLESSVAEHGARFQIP", "assay": "BLI epitope binning (ForteBIO QKe), hTigit-his on anti-Penta-HIS sensor; competitor R0223", "procedure": "(§1) Epitope competition analysis was performed on an anti-human TIGIT antibody with an MD ForteBIO QKe platform. An experimental method included: a human Tigit extracellular domain recombinant protein hTigit-his (Acrobiosystem, Cat.TIT-H2H3, lot-1336-76GF1-F9) carrying a his tag was diluted with an equilibration buffer (1×PBS+0.02% Tween 20), until the final concentration was 1.5 μg/ml. The anti-human Tigit antibody was diluted with the equilibration buffer (1×PBS+0.02% Tween 20), the final concentration being 5 μg/ml. After an anti-Penta-HIS biosensor (ForteBIO, Cat. 18-5122) was fully hydrated, first the hTigit-his recombinant protein was solidified for 180 seconds, then equilibrated for 30 seconds, and bound to the first anti-human Tigit antibody for 180 seconds, then equilibrated for 30 seconds, and then bound to the second anti-human Tigit antibody, binding time being 300 seconds. The whole reaction was performed at 25° C. and 1000 rpm; and finally, Octet analysis software was used to perform epitope binning analysis."}, "[2]": {"biological_target": "T1, human Tigit extracellular domain …", "assay": "BLI epitope binning (ForteBIO QKe), hTigit-his on anti-Penta-HIS sensor; competitor R0300", "procedure": "as §1"}},
  "data": [
    {"binder": "Tigit-18 (antibody, V domains shown) VH: QVQLQQPGAELVRPGASVKLSCKASGYSFTSYWMNWVKQRPGQGHEWIGMIHLSNSETRLNQNFLDKATLTVDKSSSTVYLQLSSPTSEDSAVYYCARERDYYGSSYFDYWGQGTTLTVSS VL: DIVMTQSPASLVVSLGQRATISCRTSQSVSTSSYSYMHWYQQKPGQPPKLLIKNASNLESGVPARFSASGSGTDFTLNIHPVEEEDAATYYCQHSWEIPRTFGGGTKLEIK", "values": [
      {"measurement": "epitope binning signal (name and unit not given)", "setting": "[1]", "value": 0.0383},
      {"measurement": "epitope binning signal (name and unit not given)", "setting": "[2]", "value": 0.544}
    ]}
  ]
}
